The DeepSol protein solubility set

Experiment: soluble on expression in E. coli; label from the status in PepcDB or PDB records
With “MAHHHHHHMLLGSFADFSVNGASTVDMPLAPSLEYVARMLRELPSVLHAEQWPTQFVCDSNAPLSGSGTELRNAEAITSSSSSVLERTLLGISPLSGTDAAVSQFLERLGGATTSLALRSLFDLCHADVWNLLGVAATSPISRLAALEKLAAAANGSASAPGPCRPVLDAETLEFKDILVWAWNRQYGCVGLRRLFFEMQVLFYRYAMNAQATSKQSRAGNGATLRDVCELWAVWRLSLQKWSAAFLAKLGTHEQTADVLDASTLRADACDLMRQHAIAVSGLAEVQRMALRVITKLQTVDAKGWFAVPAFDLVNVDFTSVRYWISSPVFARKSKREAYRSLCRTLERMVDSCVQKYGPTHAFSDVITTVRQQLVDVARAEGLL” the “soluble on expression in E. coli” value was “not soluble”.
With “MAHHHHHHMLRFTHRALARKAAVKAGSRTSAAAGATAALHAAPAAPQNAVSIPPIPGVRSVRAFRTQKMEALQPQPAAATAGRKAFAAKGSKHVKAALKSRPSKKVKLPKKAAAPSRAQQAQQVKHAKQLKAPKSAAKEISKKAKTAKARK” the “soluble on expression in E. coli” value was “soluble”.
For “MAHHHHHHMLRHLPPPRAHPSPAFCHTHARMHLLQAPPSPHPHPTRTPLQTLCVILPPAMQVELSFIFPHALKELPVSFFVPLSSQRPRTVANLFFMCSGQLPLPAELLSALHLTEAEVAYATPAAAKAAGLLPLSDSAVVRIDKASVMEIGSSTTKSIFGGFISDERVTLPAGTAARGQSIAATMSSLKAGTLLYGNLGMPNTQASRYYILLEPVTTPEQRHEFAGFAPLGMVTGGLAELKRAASQTAVQPRTLVPKKKVVVSGCRMQLDYTYLSSSTEASASVSLGGLCDGTGQDAGKQRPTEPHERVAGRVRRRDDDGDEAKQADPRRALDGDGNTTDPGAAPLHSSGFFKISARFPKAAVAASGAGPSLKRRRAEAFVVGDDGVPTLRTTAIAPGEQVGGDGTAEPFEFFKAQQDAFMNDIEGIKDAQLQRFNRKARRIMKSRRAWASSSSSGRHANSQQHSSSSGTHVTGSGALSKTGAKKTKPKRY”, the “soluble on expression in E. coli” value was “not soluble”.
In the case of “MAHHHHHHMLRRTQRWLLLNVSGESPSFRSKPVRNLQMDVQMSPYKEQFKDYWSTPVPWADREYGEKPKLGAPIPTRRAATAIVVGKNKHVAVDKVERGEDNDYKVLMMFREGKNRFVRDQFIFPSFPISLEDSSEDWEKILRRRGVKTAWNDLHHRLCAMRALFAQMNILLVPKEGGGLVEVEGPPGPKKWHLLVHSQPKAMKNLVDVLELPMETCLSQLLPFRCITTPTTETFRFDNLVYLVPFEKIPDVRFTISTVGEKLVWVSPMEAMARFNAGIMNMPTPNIIAISELNNECPIFADVTKRKPHDDYRSILPELYRHSQTKVATVLLPGDLMHPNTTEEDKAERYIRRFVYEKDYPFGIRAVFEERPATTEEMNEPLIQEAPKLLEEANEMDMVYADTPYPKREKQPGEIGRTRFPVPSYSFQEGAENEEGVIPVRNRNIESVGDLYSQTN”, the “soluble on expression in E. coli” value is reported as “not soluble”.
With “MAHHHHHHMLRRVIVGGVCRRASPSIAGRMVAARYAATIPTSTVASTTMSSSPTSRDDASTRAVVSEVPNLSFLASKTVLAETVEQTIEVCEALLNEIPKVKGAKEKHDLIDSTSNVLCLLLDPCEFVRQIHPDEEYKKHAAYAFQKGYEYMSKVNSRRDLYDVIVELDSPEGRKQLDDEEIKNVVQLKRDMESNGIHLSDALREKVTEMNIEKEDLAMRFLTEQGAKNPFATLRYLLRCRYELAKLLGFESYAEQQLRGTMLGNQQSVWHFLCGIAHKYRSAAEKELNLIRQNVGEVRNRQNITDDTRARVAHSLRRDAEPAKAEEYFSVANCIRGIQCLCSEVFGLRLEEVPFEREEVFNPDAKKFYVYDENRAFLGIIVLDMYASDMKYCQAGHLTLQLGCKPHQEALARVGLKLPERQYPVVVLTCNVGALTPAQRLPNGRFDDESTLMHPSEVTTVFHEFGHAMHTIFGQTKVQNLAGTRSSIDFVETFSQLFEHFLTSHEFLRLWAHRINTREPISFDIVMKRNAAADMFKHLDMLDQVVLSAVDQTLHGPQPYTVYFPHGQNGHLGKRTLGDSSDYGRGTYNLAKILIDVCTPLSIVTPTESGVLGTLSFEHLSGYPAGYYGYLYSLSVARRIWSKKFEKDPLNRAAGKELVQEVMRHGAACNPVEVIEKYLGDNLDEIDIWA” the “soluble on expression in E. coli” value was “not soluble”.
For “MAHHHHHHMLRYTPMWRCSAAAMQTLSAWLTDLAEESMAVPSATAADLQTRQNDGQGPTRKTPAQLWRELEDAATHANALRETDTLFSILQCLLLKQQYPTDVHAWARLAKQLLPYSGIEQKSVLHYPGRSDASYRRDGHPGGSSLANLSSSSDPVLTDADGGFGDDGASRRGGGGARRGGEYAVPYSLYPSRETLLLSGGVVPLSARVPCGDGRAISLFVRGFTRFVEGQLGVQPHTQLTSELLQVVKDVSGAVTEALAVNADSLQLELLLPALLDYMELLHVLDLRTATVAACGPLATEEERRDAAGATVRDDEPNGHGRSSPPRPSKPTRFLQNMVHDLAQNAMAGAARGARVVLYYLNECFAAVVEAYQADAAATFTDKMYWAQQRYLLTLTRACMWAISQHYTSATTAALSAASGSVASSPSPHVQGLRPTVATADLVATAPMNAHIQALYDHIDVLFQRNTHADNPLHLTDEEVAQLKEIHTAALLRALRIEEAAPDAYLRRALEVVDRVPASMAIEGELIAGKVRLLELDSDTVDEEGRAAIYDDLLTSLRSLVEMRPRFLRHNGAHHAAGGGAAAAASASTPADGGGGGGEEDEGDGEQLRLDAATQAILQRAHFDVITAFCAAHKEEWSNEAYNILVAHKYHGVKITNDLIRPVLEVFSRRGDCRVFSLVDLCVLYSNEPIDMHTIALLFRTCAAAGDHHRARTFLQLVNEIIHGFLVKCPASVKESLQELKLLDPPPRHLFVSTEDDLVQSALGEQQRTVRRLPTGS”, the “soluble on expression in E. coli” value was “not soluble”.
In the case of “MAHHHHHHMLSSAAPKRYKFDQRGNLTEVNFLACKSVVPPRTYVHSKNSLTCSTSVIPELHQTAHHCKGRSGANGTSGTNGKSGSTSKMAMSQENIFEAEAISTNAYAHGGGPSSLHSMNMVHSVSSVGSGGNDPSQYVPNQCGNMNMMGTGLSGHEMNNNAPLLFVDGAPYCADDAGQGIDPGVVAVSNALFAYNSAFQSIPIKTSPNVFRRRTKGEGNSEWCNAFVTRVDPCECGDPDEQFKPYEVTKYYDDGQVKTVFNFDQDSAPQEQLM”, the “soluble on expression in E. coli” value is reported as “soluble”.
In the case of “MAHHHHHHMLSTACRAPVRGRAYCGCNRGLVSFSFYSTFAGDRRGAGGDETSGANSGGSGDSGETPKASKATVEERRRMAKSWENAFFGRVHYEPGMHDRYQAALDAEVEEHATLDEKDRCDRLPNWPDDEETPLHEFLQLSDAAKKRYIVRRLTMGERRINYAPYYGSLLMMQHLNLGELMISDAEHLVRESGWMTECVASKIEAVRECASKIKFEYDLD”, the “soluble on expression in E. coli” value is reported as “not soluble”.
For “MAHHHHHHMLYHYDILKYNSNHEYNNCSYFKNTFVHFFDYIYNIKMMKEYNDLKAKICINKEFNILFNILNKMNYSFAYRDKKLIKMNDCLYHTYHIIGIKKISSIGYIFNFKNELNDNFSKVLKTKISNILSIEDIYFLFNRFFYFLLMYIRKFCCFSNKKDTNIPQNEAETFVNSVCNCKQDNCCYKIKTIVLINNIQ”, the “soluble on expression in E. coli” value was “not soluble”.
With “MAHHHHHHMNEPSSGETNLQGGEDDVSAKGRSYGGAGGEKDAESNMNPSDNNTSSAVEDNHENSAQKEGADELGEDALNEMFDDFLKDIENISSNMENQQEGKKLNKGDAESEIARLLANKNSSPFEIFGIHEDVDMEKIKSKYRRLSVLIHPDKCKIEKASEAFHILNKAYEELKKDDIKEQYKSVYETAKKNIIKKLNLKKIRNELNEYLNKNEEEYEITKEVQLLINEECENLLKVQKEKMEYAQKCKLANLQYAKEKEEEKMKEELKKEEERKLWIEGREERVNNWKNYKKDNLKTEKEFHIYKNVGKKKEERTEEEKEKLKRISTTNPMEK” the “soluble on expression in E. coli” value was “soluble”.
For “MAHHHHHHMNESSIYIYNLTRNVSINHLKEIFMNFGTLKDVQYVTYVEESMFHEKGDGKDGDKKEDNDDKEEDDDKEEDNNKEEDNDKEEDNDKEEDNDNNDDNNDDNNDDNNDDGDDNDDNHICVHIKYENSKEAQAAKEFMDGGQIDGKIISVKYKINHKYIKTYTKKKKEKKKKN”, the “soluble on expression in E. coli” value was “not soluble”.
For “MAHHHHHHMNIPNPRVFLDIAIGGRNAGRMIFELFMDKLPITCENFRCLCTGETGLGYYLKPRWYKNSPIHRIVTDFMFQGGDFNFGNGYGGESIYGQYFRNEKFIYKHSKRGILSMCQTRIKHTNNSQFFVTFKSCPWLDKRHVVLGHLEYGFDTLSFIEEQGTLIGKPKKQVFIYNCGVIPLDKIKYKSADNSDDDYIIPDIEKPLLEKDISINENSDFNELRNMYKYNKHF”, the “soluble on expression in E. coli” value was “not soluble”.
In the case of “MAHHHHHHMNKEHILFDSFPLTFLSDEVDCSNFEDEQERTYRERIAQMTEELKSLRMEITEKHSIRSMLEEKVAMLQNEEQTKQNNLKYVLNFCDKQMYERELGNFHNHLEQLRKQIQNSNCKIKLLIEKEFKVRKQLQLRYMKLYDLLNERVRYILGDYVKHRKCACAIFAYRQEGQR”, the “soluble on expression in E. coli” value is reported as “not soluble”.
With “MAHHHHHHMNNSVTRKIEKQILEALKDKENDIDKEIRKYEILERKVYDENDEELEFIKNKRLEELKNKHKEKLTLLKKGHGTYKEVLSEKEFFEICKSSKNVCCHFYRNTTWRCQYMDKKLIDLSSKYWNINFIKINAEKSPFLCERLKIWCIPTVMLIQNGKTEHSIVGFDELGGDNFSEQTLVNVLRKWRLIETKENDD” the “soluble on expression in E. coli” value was “not soluble”.
With “MAHHHHHHMNVAKREFIRGMMAHYRASLPPPEHSVVIHELQKRVLDIGMLAVNKAHVELFGSHVSGFCTPHSDADISLTYRNFSPWLQGMERVDEQNNKRMTRFGKEASAMGMEDVRYIRARIPVVQFTDGVTGIHCDVSIGNIGGVENSKILCAIRQVFPDFYGAYIHLVKAWGKAREVIAPERSTFNSFTVTTMALMVLQELGLLPVFSKPTGEFGELTVADAEMLLQEFKLPPIYDSLHDDDEKLGEAVFFCLQRFAEYYAKYDFSAGTVSLIHPRRHRTVYERVVRRHLELLGSRKRLEWEKHIAEHKEDGPLDENDFSASMQNETTQRPSNSPYVVEDFVNYVNCGRRVQASRVRHIQQEFNRLREMLIDKESELKFDEVFRESDTVPRFQGFEGVGTRDHRVKTFRPQ” the “soluble on expression in E. coli” value was “not soluble”.
In the case of “MAHHHHHHMPSRRFNARRGMIAARRGFFTATSPCRQSRLVPFHELFAPLSSSSLPSSPRRFPVHSVCVDPPLGTLGEPSRSQGAGAEDGSPLSWLRENLQLLEDGRKSLNERRASMPEGSPQWPRYMFPSHCCEYIYDPSNDSKLAFVTSDNYCHLCHEPVEVAIQHCAWWDHVTRLAAIRLIAIYPRRWSPVAVLREANEVLPTAVMVSPRPHPFLSFSEAVDTDDVSLMDMSSCYVFEREAVVRRAELAAILRVLCTAKDADSCDDAEQRISSIIPVLRESLFLSANGTPAASSGERTFRAYISRQISVFLPPMAPEPTTRIQQRCWGRKNLEIMFDLLGVASLQRIAGAPVEAVTKNEKAAVLRQIIYELATVLSEGDAEFAETSCAKINGTSSVDAEVQTRLLAEMALQRLAHELIHLHTMLLMDQAYETYVKLGYPSEGMLEKSGFC”, the “soluble on expression in E. coli” value is reported as “not soluble”.
For “MAHHHHHHMPTTSMQAECDKIRSSGNECRRKFSGGNLLVVATDMDGTILDPKHRLTERTKDTLYELSTRGVHIIFATGRHHSCVHATRRDLLEHYKRRSTARGVPDSPTTGYDGFYIISSNGARVHNPNGDLIFLRDLDSDVVRVLYERFGIRDHGDDPRKVISVSAYQTEKWWINRTIMSDEESLAMFGVVPELHPDLKEFPTTGVGKVCFRCYDRDILHQYEAEIKEIFHGRATAVMSSEICLDVMAAEVSKAAALREIGRILNFDPEREAIAFGDSMNDGDMLCSVAKGCIMDNGQSRLKESLPHLEVVGSSSEDGVARKLQEVFQIFHE”, the “soluble on expression in E. coli” value was “soluble”.
With “MAHHHHHHMQLPRKRGTQRRRAHRRNWRDCTSLCTMRGGAMRWNFRTAWSERKQGTGMGVHEGKPEQSWTYKKADDAIKKNDAVQQFGAAPPVLMVLASDKGWPYSWNTIQDLPKDFFVNCEVDRAWQIVKGDLTAWFSPHGGTDFTPKRRVLIGTPGIGKSVAAGSYLLY” the “soluble on expression in E. coli” value was “not soluble”.
For “MAHHHHHHMQMNSYAGGYTTHNRSYAAMVPPPMPMPPGWEMAYTPNGEIYYIDHNTRTTHWQLPAEYTMQQPVCSYRGPQRQRRGIDRSKAKTKMCMNIENGGTCSYGANCAFAHSSEELSTHPHFNSAPDAGYSAK”, the “soluble on expression in E. coli” value was “not soluble”.
